Here are results for three molecules from patent publication US20170173151A1 (Genmab, published 2017).

The target in experiment [1] is T1, HisCD74v1 (recombinant extracellular domain of human CD74 variant 1, N-terminal hexameric His tag) (human, UniProt P04233 73-296).
T1 construct: also called recombinant CD74v1; CD74v1 extracellular domain
T1 sequence: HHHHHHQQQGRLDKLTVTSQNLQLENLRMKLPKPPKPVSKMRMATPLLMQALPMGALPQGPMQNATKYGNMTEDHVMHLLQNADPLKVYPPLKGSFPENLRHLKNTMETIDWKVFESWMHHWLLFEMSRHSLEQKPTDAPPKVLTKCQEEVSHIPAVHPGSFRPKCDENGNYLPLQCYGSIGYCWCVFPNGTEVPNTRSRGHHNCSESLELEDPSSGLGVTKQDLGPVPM
In words: ELISA, coated recombinant CD74v1 extracellular domain. As for the experimental part:
(§1) ELISA plates (Greiner BioOne) were coated 0/N at 4° C. with 2 μg/mL, 100 μL per well, recombinant CD74v1 or CD74v2 in PBS (B. Braun Melsungen AG). Sequences and production of the isoforms were described supra. ELISA wells were washed three times with PBS containing 0.05% Tween-20 (PBST), emptied, and blocked with 1% (w/v) BSA fraction V (Roche) in PBS at RT for 1 h while shaking (300 rpm), and emptied. Subsequently, 100 μL anti-CD74 HuMab antibodies were added in serial dilutions in 0.2% (w/v) BSA fraction V in PBST (assay buffer) and incubated while shaking at RT for 90 min. ELISA plates were washed three times with PBST, emptied, and bound HuMab antibodies were detected using HRP-conjugated goat-anti human IgG (100 μL; 1:5,000; Peroxidase Affinipure Goat anti-human IgG, F(ab′)2 Fragment Specific [min X Bov,Hrs,Ms Sr Prot]; Jackson Immunoresearch) in assay buffer and incubated while shaking at RT for 90 min. Plates were washed three times with PBST, emptied, and incubated with 100 μL ABTS solution (50 ml ABTS buffer [Roche] and one ABTS tablet [50 mg; Roche]). After incubation in the dark at RT for 30 min, the reaction was stopped by addition of 100 μL per well oxalic acid (2% [w/v]). Plates were measured at OD 405 nm in an ELISA reader (Biotek Instruments, EL808 Absorbance Microplate Reader).
(§2) Isotype control Ab IgG1-b12 was used as a negative control. Binding curves were analyzed using non-linear regression (sigmoidal dose-response with variable slope) using GraphPad Prism 5 software (GraphPad Software, San Diego, Calif., USA).

Experiment [2] deals with T2, HisCD74v2 (recombinant extracellular domain of human CD74 variant 2, N-terminal hexameric His tag) (human, UniProt P04233 73-296).
T2 construct: also called recombinant CD74v2; CD74v2 extracellular domain
T2 sequence: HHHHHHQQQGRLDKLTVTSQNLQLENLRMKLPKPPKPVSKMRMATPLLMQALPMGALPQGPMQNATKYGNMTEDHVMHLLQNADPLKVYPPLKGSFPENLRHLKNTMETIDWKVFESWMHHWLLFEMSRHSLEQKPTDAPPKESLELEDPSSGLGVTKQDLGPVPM
The experiment in a line: ELISA, coated recombinant CD74v2 extracellular domain. Here is the method:
as §1, §2
(In general: ELISA stands for enzyme-linked immunosorbent assay.)

Experiment [3] deals with human CD74, naturally expressed on cells (Raji, Daudi, M4A4, NCI-H747 cells; human tonsil tissue) (human) (UniProt P04233). The experiment in a line: FACS on Daudi cells at 0° C., Alexa-488-labeled antibody displaced by excess unlabeled antibody.
Experiment [4] shares this target. In words: FACS on Raji cells.
Experiment [5] has the same target. In words: FACS on Daudi cells; mean of three experiments.
Experiment [6] shares this target. The experiment in a line: FACS on Daudi cells, 10 µg/mL; mean of three experiments.
Experiment [7] concerns the target T1, HisCD74v1 (recombinant extracellular …). The experiment in a line: ELISA, coated recombinant CD74v1 extracellular domain (CD74ECDHis); mean of four experiments. Here is the method: ELISA plates (Greiner BioOne) were coated with 2 μg/mL, 100 μL per well, recombinant CD74ECDHis in PBS (B. Braun Melsungen AG) at 4° C., 0/N. ELISA plates were emptied and blocked with 200 μL/well PBS containing 0.05% Tween-20 (PBST) while shaking (300 rpm), at RT for 1 hour, washed three times with 300 μL PBST and emptied. Subsequently, 100 μL anti-CD74 ADCs or unconjugated CD74-specific HuMab antibodies were added in serial dilutions in PBST and incubated while shaking at RT for 2 hours. ELISA plates were washed with PBST and emptied. Bound anti-CD74 ADCs and unconjugated HuMab antibodies were detected by addition of HRP-conjugated mouse-anti human IgG1 (100 μL; 0.015 μg/mL; Sanquin; # M1328) in PBST and incubation while shaking, at RT for 2 hours. Plates were washed with PBST, emptied and incubated with 100 μL ABTS solution (50 ml ABTS buffer [Roche] and one ABTS tablet [50 mg; Roche]). After incubation in the dark while shaking, at RT for 30 min, the reaction was stopped by incubation with 100 μL per well oxalic acid (2% [w/v]; Riedel de Haen) in the dark while shaking, for 10 min. Plates were measured at OD 405 nm in an ELISA reader (Biotek Instruments, EL808 Absorbance Microplate Reader).
IgG1-b12, an antibody binding to a non-related antigen, was used as a negative control (both unconjugated as well as in ADC format). Binding curves were analyzed by non-linear regression (sigmoidal dose-response with variable slope) using GraphPad Prism 5 software (GraphPad Software, San Diego, Calif., USA).

Experiment [8] concerns the target human CD74, naturally expressed on cells (Raji, Daudi, M4A4, NCI-H747 cells; human tonsil tissue) (human) (UniProt P04233). In words: cell-based or functional assay.

B1: HuMab-CD74-008 (antibody, V domains shown)
VH: QVQLVESGGGVVQPGRSLRLSCAASGFTFSSYAMHWVRQAPGKGLEWVAVISYDGSNKYYADSVKGRFTISRDNSKNTLYLQMNSLRAEDTAVYYCARGREITSQNIVILLDYWGQGTLVTVSS
VL: DIQMTQSPSSLSASVGDRVTITCRASQGISSWLAWYQQKPEKAPKSLIYAASSLQSGVPSRFSGSGSGTDFTLTISSLQPEDFATYYCQQYNSYPLTFGGGTKVEIK
notes: Human IgG,kappa antibody (HuMab) produced transiently in HEK-293F cells; also called antibody 008
As usually defined, the EC50 is the concentration at which the effect is half-maximal. One may read the koff as the first-order rate constant of dissociation. Higher therefore signals fast dissociation. For B1, the values for the EC50 in experiment [1] and in experiment [2] were 1.39 µg/mL and 0.759 µg/mL, respectively. Besides, the koff in experiment [3] was 0.00333 s⁻¹. Further, in experiment [3], the time until half of the bound labeled antibody was replaced was found to be 4 min.

B2: HuMab-CD74-011 (antibody, human IgG1, V domains shown)
VH: QVQLVESGGGVVQPGRSLRLSCAASGFTFSSYGMHWVRQAPDKGLEWVAVIWYDGSNKYYADSVKGRFTISRDNSKNTLYLQMNSLRAEDTAVYYCARGGTLVRGAMYGTDVWGQGTTVTVSS
VL: DIQMTQSPSSLSASVGDRVTITCRASQGISSWLAWYQQKPEKAPKSLIYAASSLQSGVPSRFSGSGSGTDFTLTISSLQPEDFATYYCQQYNSYPLTFGGGTKVEIK
notes: Human IgG1,kappa antibody produced transiently in HEK-293F cells; also called antibody 011
Regarding B2, the EC50 in experiment [4] was 0.151 µg/mL; in experiment [5], 0.05 µg/mL; in experiment [1], 0.344 µg/mL; in experiment [2], 0.245 µg/mL; in experiment [7], 0.02 µg/mL. In experiment [6], this molecule returned a Maximal binding (MFI at 10 µg/mL) of 5780 MFI. For the same molecule, in experiment [3], the off-rate constant (koff) came out at 0.00117 s⁻¹. Further, the time until half of the bound labeled antibody was replaced in experiment [3] came out at 10 min.

B3: HuMab-CD74-006 (antibody, human IgG1, V domains shown)
VH: QVQLVESGGGVVQPGRSLRLSCAASGFTFSSYAMHWVRQAPGKGLEWVAVISYDGSIKYYADSVKGRFTISRDNSKNTLYLQMNSLRVEDTAVFYCARGREITSQNIVILLDYWGQGTLVTVTS
VL: DIQMTQSPSSLSASVGDRVTITCRASQGISSWLAWYQQKPEKAPKSLIYAASSLQSGVPSRFSGSGSGTDFTLTISSLQPEDFATYYCQQYNSYPLTFGGGTKVEIK
notes: Human IgG1,kappa antibody produced transiently in HEK-293F cells; also called antibody 006
For B3, the EC50 came to 0.196 µg/mL in experiment [4]; 0.04 µg/mL in experiment [5]; 0.321 µg/mL in experiment [1]; 0.21 µg/mL in experiment [2]; 0.02 µg/mL in experiment [7]. In experiment [8], this molecule yielded a % viability (minimal) of Raji cells, anti-kappa-ETA' assay of 1.5%. For the same molecule, the EC50 of killing of Raji cells, anti-kappa-ETA' assay in experiment [8] worked out at 57 µg/mL. In experiment [6], this molecule registered a Maximal binding (MFI at 10 µg/mL) of 4600 MFI. In addition, the koff in experiment [3] amounted to 0.004 s⁻¹. The molecule also displayed a time until half of the bound labeled antibody was replaced in experiment [3] of 3 min.
